Legend:
[1] = target: T1, E3mUU(ΔUFIM) with UFBP1(R265A) (UniProt O94874 1-179; Q96HY6 204-314, R265A); experiment: SEC; analytical SEC, Superdex 200 Increase 3.2/300, 25 mM HEPES pH 7.5, 200 mM NaCl, 0.5 mM TCEP; components mixed and kept on ice before loading; peak fractions on Coomassie gels; conditions: both partners purified
T1 construct: UFL1; limits as stated for the crystallised E3mUU(ΔUFIM) construct; UFBP1 204-C; limits as for m14; source: recombinant, purified (HisTrap, HiLoad 26/600 Superdex 75 pg)

[2] = target: T2, E3mUU(ΔUFIM) (UniProt O94874 1-179; Q96HY6 204-314); experiment: as above; conditions: both partners purified
T2 construct: UFL1; limits as stated for the crystallised E3mUU(ΔUFIM) construct; for the crystal 6×His-TEV-UFL1(1–179) was co-expressed with a UFC1-UFBP1 204-C fusion and the His tag was not cleaved; source: recombinant, purified (HisTrap, HiLoad 26/600 Superdex 75 pg)

| Binder | binding result [1] | binding result [2] |
| --- | --- | --- |
| UFC1 (enzyme, free UFC1 in SEC and ITC; also called E2) MADEATRRVVSEIPVLKTNAGPRDRELWVQRLKEEYQSLIRYVENNKNADNDWFRLESNKEGTRWFGKCWYIHDLLKYEFDIEFDIPITYPTTAPEIAVPELDGKTAKMYRGGKICLTDHFKPLWARNVPKFGLAHLMALGLGPWLAVEIPDLIQKGVIQHKEKCNQ | binds | – |
| UFC1(D50A) (enzyme) MADEATRRVVSEIPVLKTNAGPRDRELWVQRLKEEYQSLIRYVENNKNAANDWFRLESNKEGTRWFGKCWYIHDLLKYEFDIEFDIPITYPTTAPEIAVPELDGKTAKMYRGGKICLTDHFKPLWARNVPKFGLAHLMALGLGPWLAVEIPDLIQKGVIQHKEKCNQ | – | binds |

Reference: PMC10937380 (Nature, 2024)
